Data from publication PMC5606096, “High-level expression and characterization of a novel cutinase from Malbranchea cinnamomea suitable for butyl butyrate production” (Biotechnology for Biofuels, 2017).

Assays:
[1] = test system: T1, CCCC(=O)Oc1ccc([N+](=O)[O-])cc1; experiment: p-nitrophenol release, Michaelis-Menten fit (GraFit); format: biochemical, Malbranchea cinnamomea; details: 50 mM Tris-HCl pH 8.0, 45 °C, 5 min
T1 construct: signal peptide (16 residues) removed, 215-residue precursor; pPIC9K secreted from Pichia pastoris GS115; purified on Q Sepharose; no tag mentioned

[2] = test system: T2, CCCCCC(=O)Oc1ccc([N+](=O)[O-])cc1; experiment: as above; format: biochemical, Malbranchea cinnamomea; details: 50 mM Tris-HCl pH 8.0, 45 °C, 5 min
T2 construct: signal peptide (16 residues) removed, 215-residue precursor; pPIC9K secreted from Pichia pastoris GS115; purified on Q Sepharose; no tag mentioned

Chain of McCut (Malbranchea cinnamomea) (chain, as listed by the source): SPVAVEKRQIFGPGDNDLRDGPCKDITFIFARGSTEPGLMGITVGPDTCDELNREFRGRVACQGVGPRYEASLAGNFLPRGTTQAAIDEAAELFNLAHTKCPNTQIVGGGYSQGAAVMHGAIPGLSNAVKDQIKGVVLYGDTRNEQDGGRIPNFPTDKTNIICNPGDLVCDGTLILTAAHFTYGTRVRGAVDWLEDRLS

Substance McCut (Malbranchea cinnamomea) has a Km [1] of 660 µM, a kcat [1] of 0.46 s⁻¹ and a Km [2] of 270 µM. It also gave a kcat [2] of 0.46 s⁻¹.
